Source: the supplement of paper PMC12764529
± gives the half width of the 95% confidence interval.

Legend:
[1] = folding stability dG unfold (combined trypsin and chymotrypsin); higher = more stable
In short: (§1)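 Bayesian fitting of sequencing counts gave K50 for each design. Unfolding free energy followed by setting this against a sequence-predicted unfolded-state K50 and a shared folded-state K50, either per protease or with trypsin and chymotrypsin combined. The designs, under 80 residues and lacking cysteine, were digested in a PA-tagged cDNA display format at 11 threefold-diluted protease concentrations and without protease, and only those with AlphaFold2 dimer inter-PAE above 15 were kept.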

[2] = folding stability dG unfold from trypsin proteolysis; higher = more stable
In short: as §1

[3] = folding stability dG unfold from chymotrypsin proteolysis; higher = more stable
In short: as §1

SAGGSAGGSVKITTEPDPNGYYRVTVTIRLNDKPIPVDMPFPPGKTPDQVKEKARDIAKELLKSAGGSAGGS [r12_69_TrROS]
folding stability dG unfold [1]: 0.455 ± 0.091 kcal/mol
folding stability dG unfold [2]: 0.249 ± 0.089 kcal/mol
folding stability dG unfold [3]: 0.546 ± 0.13 kcal/mol

SAGGSAGGSVKPGQEIEVRVELTYDEETGELTIRREVVNKETGELIAEEEITISLEDLPPELLSAGGSAGGS [r12_145_TrROS_Hall]
folding stability dG unfold [1]: 1.63 ± 0.076 kcal/mol
folding stability dG unfold [2]: 1.83 ± 0.083 kcal/mol
folding stability dG unfold [3]: 1.51 ± 0.04 kcal/mol

SAGGSAGGSVRIPGGQPNTKVTVTVRLPDGTPVEVEATVNPSGEITLDLPDVSPDLIESIELSSAGGSAGGS [r12_477_JUSTAS]
folding stability dG unfold [1]: 0.82 ± 0.038 kcal/mol
folding stability dG unfold [2]: 1.14 ± 0.019 kcal/mol
folding stability dG unfold [3]: 0.478 ± 0.027 kcal/mol

SAGGSAGGSWGTISIRIEFNFMAFDPGLGQFSMFPMEVYISIPIEIPPPPPPPKPKYDNGKPKSAGGSAGGS [r12_140_TrROS]
folding stability dG unfold [1]: 3.78 ± 0.29 kcal/mol
folding stability dG unfold [2]: 2.6 ± 0.28 kcal/mol
folding stability dG unfold [3]: 4.52 ± 0.21 kcal/mol

SAGGSAGGSWITPEWIEEIARYLARELGIDDVKIEVERRPDGYVTVEIRNPANGRKVEITVPWSAGGSAGGS [r12_1000_TrROS]
folding stability dG unfold [1]: 3.16 ± 0.19 kcal/mol
folding stability dG unfold [2]: 3.38 ± 0.14 kcal/mol
folding stability dG unfold [3]: 3.06 ± 0.1 kcal/mol

SAGGSAGGSWIWVIKIENPEKGREYTFFIPGPLEDIKDHIREWNPDPDVKVEIQRIPVSPEAFSAGGSAGGS [r12_92_TrROS]
folding stability dG unfold [1]: 1.89 ± 0.094 kcal/mol
folding stability dG unfold [2]: 1.68 ± 0.054 kcal/mol
folding stability dG unfold [3]: 2.11 ± 0.096 kcal/mol

SAGGSAGGSYLDPNKVYLVETEVVGDKVVFTLRDPETGETFVLEADASKEVLKPGDRVLALVASAGGSAGGS [r12_525_TrMRF]
folding stability dG unfold [1]: 1.82 ± 0.12 kcal/mol
folding stability dG unfold [2]: 1.47 ± 0.047 kcal/mol
folding stability dG unfold [3]: 1.97 ± 0.065 kcal/mol

SAGGSAGGVIRMPFVIPDGYVIKDLTVHWSPGNGMFMIEIEIEPVKPPPPPEISPEELNKKNNKSAGGSAGG [r6_148_TrROS]
folding stability dG unfold [1]: 2.41 ± 0.12 kcal/mol
folding stability dG unfold [2]: 2.15 ± 0.21 kcal/mol
folding stability dG unfold [3]: 2.57 ± 0.04 kcal/mol

SAGGSAGGVTINFPDGVTIMVDPGTGKIYIMNPNGYIFKFTIERKPNEWKLKIEPIKPIPPDDFSAGGSAGG [r6_324_TrROS]
folding stability dG unfold [1]: 3.16 ± 0.19 kcal/mol
folding stability dG unfold [2]: 2.55 ± 0.085 kcal/mol
folding stability dG unfold [3]: 3.7 ± 0.091 kcal/mol

SAGGSAGGVVVVAKFPTREAVFVAPESLTPEQFAEALRRELGNPDAPLVDLEVRRVTPEELLAASAGGSAGG [r6_120_TrMRF]
folding stability dG unfold [1]: 0.691 ± 0.15 kcal/mol
folding stability dG unfold [2]: -0.269 ± 0.16 kcal/mol
folding stability dG unfold [3]: 1.05 ± 0.12 kcal/mol

SAGGSAGGWFYIMFPIPPGYKVEAEWKFPNGPKVKSEIHPDGPIMITIPPGMANMPDFEIKIEPSAGGSAGG [r6_237_TrROS]
folding stability dG unfold [1]: 3.2 ± 0.15 kcal/mol
folding stability dG unfold [2]: 2.35 ± 0.12 kcal/mol
folding stability dG unfold [3]: 3.77 ± 0.084 kcal/mol

SAGGSAGGWIPVEELAKEFGFSPDFIEQLMKNGYKIEYEYHEPGWVRLSVENPDNGKKREITFPSAGGSAGG [r6_969_TrROS]
folding stability dG unfold [1]: 1.92 ± 0.053 kcal/mol
folding stability dG unfold [2]: 1.43 ± 0.022 kcal/mol
folding stability dG unfold [3]: 2.183 ± 0.019 kcal/mol

SAGGSAGGWIRVDKVEPNPNDDMATVSVEMEDPGDGKKKKFNMTMPSDNPELIDKLPPGDWIEFSAGGSAGG [r6_979_TrROS]
folding stability dG unfold [1]: -0.1 ± 0.096 kcal/mol
folding stability dG unfold [2]: -0.621 ± 0.1 kcal/mol
folding stability dG unfold [3]: 0.215 ± 0.11 kcal/mol

SAGGSAGGWPLMVEYTPPGDGKTQTYPIPIKGPLSEIKDQIKENMPPGFREVEISPANIEKILKSAGGSAGG [r6_889_TrROS]
folding stability dG unfold [1]: < -1 kcal/mol
folding stability dG unfold [2]: -0.76 ± 0.39 kcal/mol
folding stability dG unfold [3]: -0.952 ± 0.5 kcal/mol

SAGGSAGGWQPIAEHEFENPEDGKKIKIYYWPENGMMRIEFPNGRKHVIPPGDPFKSIEEMIKASAGGSAGG [r6_72_TrROS]
folding stability dG unfold [1]: 1.54 ± 0.14 kcal/mol
folding stability dG unfold [2]: 1.15 ± 0.071 kcal/mol
folding stability dG unfold [3]: 1.81 ± 0.059 kcal/mol

SAGGSAGGYIMIPPGAEIDVNPENGKIKIKFRNPDNGEEEKITFDVPPGVKIHMWDNWIMIELPSAGGSAGG [r6_804_TrROS]
folding stability dG unfold [1]: 3.29 ± 0.29 kcal/mol
folding stability dG unfold [2]: 3.3 ± 0.18 kcal/mol
folding stability dG unfold [3]: 3.14 ± 0.12 kcal/mol

SAGGSAGGYRIRFKNGIEFKLPMTEGELKKMADNFPGFEVTEVEPVPPPPPPPEDLPPEQREQMSAGGSAGG [r6_881_TrROS]
folding stability dG unfold [1]: -0.0695 ± 0.32 kcal/mol
folding stability dG unfold [2]: -0.134 ± 0.36 kcal/mol
folding stability dG unfold [3]: 0.148 ± 0.23 kcal/mol

SAGGSAGIAKKNNLTLKVTVEKKGDKLLVTVEITYPDGTKKTITIELNIKLVPEVPPVHPDEPGFGSAGGSA [r15_843_TrMRF]
folding stability dG unfold [1]: 2.81 ± 0.095 kcal/mol
folding stability dG unfold [2]: 2.58 ± 0.17 kcal/mol
folding stability dG unfold [3]: 2.83 ± 0.1 kcal/mol

SAGGSAGKIEIPLPELGEVREEPVPDTVRIEVRFPDGRVLEATVLKDDTIEIREKGTGKLVATLPASAGGSA [r15_656_TrMRF]
folding stability dG unfold [1]: 1.44 ± 0.12 kcal/mol
folding stability dG unfold [2]: 1.44 ± 0.058 kcal/mol
folding stability dG unfold [3]: 1.39 ± 0.043 kcal/mol

SAGGSAGKKPVEFKVKIMIFNPENGDMYMIEMTITIDPDGQIKIKIKLPDPPRLPPGMVIFIMVYISAGGSA [r15_488_TrROS]
folding stability dG unfold [1]: 5.01 ± 0.16 kcal/mol
folding stability dG unfold [2]: 4.08 ± 0.16 kcal/mol
folding stability dG unfold [3]: 5.24 ± 0.085 kcal/mol

SAGGSAGKPRPIDIWIPLPPGAEEVKIEQLDIFIPDGWRIRIEEIEIDPEDPGYIRVTVKIQPLDDSAGGSA [r15_852_TrROS]
folding stability dG unfold [1]: 2.56 ± 0.16 kcal/mol
folding stability dG unfold [2]: 2.33 ± 0.1 kcal/mol
folding stability dG unfold [3]: 2.78 ± 0.045 kcal/mol
